36 sequences from the supplement of paper PMC10567573 can be followed below.

± gives the standard deviation.

The nature of this series: protein stability index of a GFP-peptide fusion (GPS, HEK-293T) (PSI 1-6); higher = more stable. As to conditions: c terminus: a fixed tail appended.
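Note: 24-mer peptide tiles fused after GFP, lentivirally expressed, FACS-sorted into six equal bins by GFP/DsRed ratio, decoded by Illumina sequencing, PSI is the read-weighted mean bin number.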

For FTSSPSPFSSSSPENVEDSGLDSP [FCHO1], the protein stability index worked out at 2.86 ± 0.94 (treatment: DMSO) and 3.81 ± 0.87 (treatment: MLN4924 1 uM, 8 h).

Consider FTYDPWIGKLLYLEDFFVMSDYRG [SAT1], for which the protein stability index (treatment: DMSO) was 2.88 ± 0.51 and the protein stability index (treatment: MLN4924 1 uM, 8 h) turned out to be 2.79 ± 0.76.

With FVLSLVKKHYRLQFYMFGWTHVTL [CDS2], the protein stability index amounted to 2.99 ± 0.57 (treatment: DMSO) and 2.99 ± 0.67 (treatment: MLN4924 1 uM, 8 h).

On to FYLPREELWIYNMETGRWKKINTE [KLHDC2], for which the protein stability index reads like this: (treatment: DMSO) 2.63 ± 0.22; (treatment: MLN4924 1 uM, 8 h) 2.32 ± 0.49.

Take FYMEEGVPYCERDYEKMFGTKCHG [PDLIM7]: the protein stability index is, setting by setting: (treatment: DMSO) 2.78 ± 0.4; (treatment: MLN4924 1 uM, 8 h) 3.19 ± 0.31.

For the sequence FYTLSPNSHFSLNVKTLKDGKPFP [PCDHGC5], the protein stability index reads like this: (treatment: DMSO) 2.6 ± 0.21; (treatment: MLN4924 1 uM, 8 h) 2.62 ± 0.24.

As for GAAEPITVKFANNPSQKTGQALLT [ELAVL3], the protein stability index was found to be 4.1 ± 0.3 (treatment: DMSO) and 4.39 ± 0.055 (treatment: MLN4924 1 uM, 8 h).

As for GAAESPYAYSNGIDYKTTTILLDG [RAB40C], the protein stability index was 3.7 ± 0.39 (treatment: DMSO) and 3.67 ± 0.39 (treatment: MLN4924 1 uM, 8 h).

With GAHTLVNHGYAEPAAGRELPPDMT [KCNA3], the protein stability index by setting is: (treatment: DMSO) 4.87 ± 0.13; (treatment: MLN4924 1 uM, 8 h) 4.73 ± 0.17.

Turning to GAILTTMLATRNFSGGKSGGNKKS [CAMK2A], the protein stability index by setting is: (treatment: DMSO) 3.67 ± 0.24; (treatment: MLN4924 1 uM, 8 h) 3.63 ± 0.41.

On to GATWRTSGLLEELNAEAGHLDPGF [C18orf25], for which the protein stability index runs as follows: (treatment: DMSO) 3.98 ± 0.43; (treatment: MLN4924 1 uM, 8 h) 3.75 ± 0.52.

GAVVLGAESHASKDVAIDMMDSRT [STX5]: the protein stability index was found to be 4.67 ± 0.2 (treatment: DMSO) and 4.64 ± 0.44 (treatment: MLN4924 1 uM, 8 h).

For GCDRIIGSKKKFDKCMVCGGDGSG [ADAMTS4], the protein stability index reads like this: (treatment: DMSO) 3.21 ± 0.34; (treatment: MLN4924 1 uM, 8 h) 4.053 ± 0.022.

With GCYAYRQNPEAIAAAAMYTFLPDN [MYORG], the protein stability index reads like this: (treatment: DMSO) 2.61 ± 0.34; (treatment: MLN4924 1 uM, 8 h) 2.46 ± 0.29.

Turning to GDRPRWQRLLGEDKFQWLAGLAPP [ANKRD9], the protein stability index was 2.85 ± 0.35 (treatment: DMSO) and 2.7 ± 0.3 (treatment: MLN4924 1 uM, 8 h).

As to GEAAAGGAAEEARRLEQRWGFGLE [ACBD3], the protein stability index (treatment: DMSO) was 4.49 ± 0.38 and the protein stability index (treatment: MLN4924 1 uM, 8 h) was determined as 4.43 ± 0.38.

Take GEGVERELFVREPTGRLPALVRWW [MYORG]: the protein stability index runs as follows: (treatment: DMSO) 2.91 ± 0.075; (treatment: MLN4924 1 uM, 8 h) 2.77 ± 0.34.

Turning to GEITQHNVTELLRDVAAWGRARAT [DNAAF3], the protein stability index is, setting by setting: (treatment: DMSO) 3.11 ± 0.35; (treatment: MLN4924 1 uM, 8 h) 3.53 ± 0.5.

As to GELSPEQPSFEPTKNKELTDEFRE [FADS1], the protein stability index reads like this: (treatment: DMSO) 5.52 ± 0.33; (treatment: MLN4924 1 uM, 8 h) 5.38 ± 0.18.

As to GETYCEEHGEKIYFFCENDAEFLC [TRIM15], the protein stability index reads like this: (treatment: DMSO) 3.22 ± 0.26; (treatment: MLN4924 1 uM, 8 h) 3.33 ± 0.44.

For the sequence GFGDEDTGLELIAEESNPPLQDFP [MIA2], the protein stability index stood at 5.4 ± 0.34 (treatment: DMSO) and 5.23 ± 0.069 (treatment: MLN4924 1 uM, 8 h).

On to GFWQLPPPATQNTFGNSTLALGPG [PLAGL1], for which the protein stability index was 3.17 ± 0.15 (treatment: DMSO) and 3.29 ± 0.35 (treatment: MLN4924 1 uM, 8 h).

As for GGGFAGGDGLLVGSEKVTMQNLND [KRT16], the protein stability index worked out at 4.72 ± 0.34 (treatment: DMSO) and 4.73 ± 0.1 (treatment: MLN4924 1 uM, 8 h).

Take GGLQKMVALLNKTNVKFLAITTDC [CTNNB1]: the protein stability index is, setting by setting: (treatment: DMSO) 2.73 ± 0.61; (treatment: MLN4924 1 uM, 8 h) 2.45 ± 0.46.

Regarding GGMNHSAFPQTPFKTGNSTATCTT [KCNA3], the protein stability index is 4.27 ± 0.24 (treatment: DMSO) and 4.4 ± 0.4 (treatment: MLN4924 1 uM, 8 h).

On to GGPGGRGPWSCENFNPLLVAGGVA [CEND1], for which the protein stability index by setting is: (treatment: DMSO) 2.82 ± 0.23; (treatment: MLN4924 1 uM, 8 h) 2.72 ± 0.18.

GGPSSPPSDPPAMSPGPLDALSSP [C2CD2L]: the protein stability index runs as follows: (treatment: DMSO) 5.23 ± 0.26; (treatment: MLN4924 1 uM, 8 h) 5.27 ± 0.14.

Turning to GGYFKAHIKFPIDYPYSPPTFRFL [UBE2R2], the protein stability index (treatment: DMSO) came to 2.61 ± 0.96 and the protein stability index (treatment: MLN4924 1 uM, 8 h) turned out to be 2.71 ± 0.52.

GHPFFEGVDWEHIRERPAAIPIEI [STK38L]: the protein stability index runs as follows: (treatment: DMSO) 2.46 ± 0.39; (treatment: MLN4924 1 uM, 8 h) 2.84 ± 0.38.

In the case of GKAFSQNSGLINHQRIHTGEKPYE [ZNF24], the protein stability index runs as follows: (treatment: DMSO) 3.86 ± 0.19; (treatment: MLN4924 1 uM, 8 h) 4.33 ± 0.42.

Take GKHPKDKTEDENKQSFLDGGKGHH [TOR1AIP2]: the protein stability index is 5.4 ± 0.34 (treatment: DMSO) and 5.55 ± 0.22 (treatment: MLN4924 1 uM, 8 h).

As for GKVEAQHILASAPTDRNLCHFQAL [PYCR3], the protein stability index worked out at 2.7 ± 0.25 (treatment: DMSO) and 3.04 ± 0.31 (treatment: MLN4924 1 uM, 8 h).

In the case of GLKPGPEDGPGKEEAPELDEAELD [SERTAD1], the protein stability index was 5.67 ± 0.34 (treatment: DMSO) and 5.83 ± 0.064 (treatment: MLN4924 1 uM, 8 h).

For the sequence GLLICLPREQAARFCSEIKSSKYG [SEPHS2], the protein stability index (treatment: DMSO) worked out at 2.04 ± 0.28 and the protein stability index (treatment: MLN4924 1 uM, 8 h) was 2.17 ± 0.55.

On to GLPLAASMQEDEQSGRDLQQYQSQ [SEC22B], for which the protein stability index is, setting by setting: (treatment: DMSO) 5.34 ± 0.24; (treatment: MLN4924 1 uM, 8 h) 5.43 ± 0.3.

In the case of GLRLCRPKAKAKAKAKAKDQTKAQ [RPL29], the protein stability index runs as follows: (treatment: DMSO) 3.91 ± 0.23; (treatment: MLN4924 1 uM, 8 h) 4.16 ± 0.34.
